Reference: the DeepSol protein solubility set

test: soluble on expression in E. coli; label from the status in PepcDB or PDB records

Sequence | soluble on expression in E. coli
VREILSIHVGQCGNQIADSFWRLALREHGLTEAGTLKEGSNAAANSNMEVFFHKVRDGKYVPRAVLVDLEPGVIARIEGGDMSQLFDESSIVRKIPGAANNWARGYNVEGEKVIDQIMNVIDSAVEKTKGLQGFLMTHSIGGGSGSGLGSLILERLRQAYPKKRIFTFSVVPSPLISDSAVEPYNAILTLQRILDNADGAVLLDNEALFRIAKAKLNRSPNYMDLNNIIALIVSSVTASLRFPGKLNTDLSEFVTNLVPFPGNHFLTASFAPMRGAGQEGQVRTNFPDLARETFAQDNFTAAIDWQQGVYLAASALFRGDVKAKDVDENMATIRKSLNYASYMPASGGLKLGYAETAPEGFASSGLALVNHTGIAAVFERLIAQFDIMFDNHAYTHWYENAGVSRDMMAKARNQIATLAQSYRDAS | soluble
MVRVYIGRLPNRASDRDVEHFFRGYGKLSDVIMKNGFGFVDFQDQRDADDAVHDLNGKELCGERVILEFPRRKVGYNEERSGSGFRGREPTFRKGGERQFSNRYSRPCSTRFRLVIDNLSTRYSWQDIKDHIRKLGIEPTYSEAHKRNVNQAIVCFTSHDDLRDAMNKLQGEDLNGRKLKCTDETRDRSRSRSPRRRSRSRSPTRSRSPPARRRSPGSDRSDRKSRSASPKKRSDKRARSESKSRSRSGGRRSRSNSPPNRSPSPKKRRDNSSPRSGSASP | not soluble
STSAAQQGRNQNGEYNILDSIIAETRLSPDDEAYDIAKRGVSAFIEELLKPQNDGEPVKKAMVDRMIAEIDAKLSTQMDEILHHPDFQALESAWRGLQLLVDRTNFRENIKIEILSVSKQDLLDDFEDSPEVMQSGLYKHIYTAEYGQFGGQPVGAIIANYYMSPSSPDVKLMQYVSSVACMAHAPFVAAAGPKFFGLESFTGLPDLKDLKDHFEGPQFAKWQSFRQSEDSRYVALTVPRFLLRTPYDPEENPVKSFAYKETVANSHEHYLWGNTAYAFGTKLTDSFAKYRWCPNIIGPQSGGAVEDLPLHHFESMGEIETKIPTEVLVSDRREYELAEEGFISLTMRKGSDNAAFFSASSVQKPKFFGISAEGKAAELNYKLGTQLPYMMIVNRLAHYLKVLQREQLGSWKERTDLELELNKWIRQYVADQENPSAEVRGRRPLRAAQIIVSDVEGEPGWYRVSLNVRPHFKYMGADFTLSLVG | not soluble
MPKIQNIVTVSSQEYRDAMSHFAGAVHIVTTNGIKGKRGVTISACCSLSDDPPTLLVCLMRHNLKNHLFIENGNFCVNSLAGKHRSLADIFSRRYNYTETECFDRAQWGTLQTGAPSLSDALASFDCRLICWHEHATHYILIGEVIAINRNQEKDALIYLNRGYHTLPL | not soluble
MEFINNITIRARVAFYLAVAQKAFEGLSENDQGYLQADEALKQCWNWLKGKNISGDELCEYLENERDTGLMVYSSFVQGDPVKEPIWITIITALMYTIWQAYQIENEKYLPESIEQVDEGTIDILIEYAKKCANYDEHWIKLLENYLLEKYRTTNMNEVGIAILKDEIMGIR | soluble
MLMPKRTKYRKQMKGRNRGKAHRGNSIAFGDIAIKAIEHGRIDSRQIESARVAMTRHIKRAGKVWIRVFPDKPLTAKPLETRMGKGKGSVEKWVMNIKPGRIVYEMLGIEEGLAREALALAQSKLPFKTKIVTCESENEIYLEHHHHHH | soluble
MAMSNMTYNNVFDHAYEMLKENIRYDDIRDTDDLHDAIHMAADNAVPHYYADIFSVMASEGIDLEFEDSGLMPDTKDVIRILQARIYEQLTIDLWEDAEDLLNEYLEEVEEYEEDEE | soluble
MFVRSLFLALLLATIVAADIDFSTCARMDVPILKKAAQGLCITSCSMQNCGTGSCKKRSGRPTCVCYRCANGGGDIPLGALIKRG | not soluble
MSLENKHVTIYDIAERLNLATSTISRALKDHHTISDKTIKKVKKTAEEMGFVPNTLAAGLRGNKTRTIGVLIPTVTQPFLSSLISGIEITAQKSDYTVIIMQSHDSYEEEVNMAKSLYSNRVSGVICSLAMETRDTAHFHQFSNNNIPLVFVDRVPKDYNTFRVVIDNYTAGYKATKHLIEQGCIRIAHLTAGSELGNLYNERKRGYIEALKDHNIEVEEELIINLNSVTYEDGVKASNALFDLKPIPDGLFAPGDILAVSAVQTAKKRGTKVPEEFKVIGFNNDPISQIIDPNLSTITHPAEKMGKAAAEIIIKNLKSSKNDDAKEITFLNTEVLARESSSKEGHHHHHH | soluble
MAGMFQDLLYLNLIGAVRAITAAQGIKIRISGEENVPESGGAVVVVNHTGYLDFIYAGYPFRKFRRYIRYMAKGDVFKHPVAGPLLREMRHIPVDRIDGTAAFDQAVDMLKKGELVGIFPEATISRSFEIKTLRPGAVRMAQAAGVPIIMVMVVGSQRVWTKGQKKNLIHPGSPIHMKVFPAWYPEGDANEATQELRRRMITGLEEVWSDYQAEEPIVPGALWVPARLGGGAPTFDEAQAEDEKVEQERRRVRVLTEEIAQLTERIKQATKAGASAVDAARHRVEDVLHGEVPAKADAGKALSVLKDTVDEFVEEVVSSAKEGKDRVMDAGEQLRRSVADLYGQAVTASQVNPVVVQATAQVSMLLDRLPQRKDAPKVELPRVLVLSVDGAVAAYPEVTLSPSVLSQVAALSQQHTVVLTTISGMDRVVALARQVAQESGADVCVSASAGAVAATVSDTDVSVLHECVVSDELRAAVQECVDSLGLDVEWKGAHHGVVSGLGADPDLWQELSQVVRVVPLPGEPDRCVIVSPEASVEAAVQTCVGDVWDEVLVCAADASEAGALARAGHRVAVVSAPVVVLREAAQWCDRPDKDGVINFLDKHFITPESV | not soluble
MAQFESGVKYVPYSQEQVFNKLSDLSNLESVRDKLADKVQGMEFDSDSLSFTVQGISITLRIIEREPYKCVKFESEKSPVPMNLWIQILPVEAGQAKLKVTIRAEVNMFMKAMVAKPLQDGVDKLAEMLSMIPYLEHHHHHH | soluble
MVNEYKRIVLLRGLECINKHYFSLFKSLLARDLNLERDNQEQYTTIQIANMMEEKFPADSGLGKLIEFCEEVPALRKRAEILKKERSEGETSLEKNGQEAGPATPTSTTSHMLASERGETSATQEETSTAQAGTSTAQAGTSTAQAGTSTA | soluble
METNLFKLSLDDVETPKGSMLDLKISQSKIALPKNTVGGTILRSDLLANFLTEGNFRASVDLQRTHRIKGMIKMVATVGIPENTGIALACAMNSSIRGRASSDIYTICSQDCELWNPACTKAMTMSFNPNPCSDAWSLEFLKRTGFHCDIICVTGWTATPMQDVQVTIDWFISSQECVPRTYCVLNPQNPFVLNRWMGKLTFPQGTSRSVKRMPLSIGGGAGAKSAILMNMPNAVLSMWRYFVGDLVFEVSKMTSPYIKCTVSFFIAFGNLADDTINFEAFPHKLVQFGEIQEKVVLKFSQEEFLTAWSTQVRPATTLLADGCPYLYAMVHDSSVSTIPGDFVIGVKLTIIENMCAYGLNPGISGSRLLGTIPQ | soluble
ETVHETPLLIFPPWINKFYILDLKPQNSLLKWLVDQGFTVFVVSWVNPDKSYAGIGMDDYIREGYMRAMAEVRSITRQKQINAVGYCIAGTTLTLTLAHLQKAGDPSVRSATFFTTLTDFSDPGEVGVFLNDDFVDGIERQVAVDGILDKTFMSRTFSYLRSNDLIYQPAIKSYMMGEAPPAFDLLYWNGDGTNLPAQMAVEYLRGLCQQDRLAGGTFPVLGSPVGLKDVTLPVCAIACETDHIAPWKSSFNGFRQFGSTDKTFILSQSGHV | not soluble
MELKKFELKTVELPILKPGTLRGKKEFRLLHISDLHMIPGQETKKAWVSALDSLSPDLVINTGDNLSDEKAVPDVLRALGPLMNRPGAFVFGTNDYWAPRPVNPFGYLFGKKREVSHIDLPWRAMRAAFIEHGWQDANQKRLEFQVGSVRLAISGVDDPHHDLDDYTEIAGAPNVDADLSIALLHAPEPRVLAQFEADGYQLSLSGHTHGGQLEHHHHHH | not soluble
MPNDLPFDLRPSRRTVTMGLAAGVAAALLPWRAQALDTGTARALVVEAVAQVNRTINSGKSEGQMYADFERLFARYADVPAIARTALGVAARSASRQEISAFTQAYQGYIARKYGKRFREFIGSEIKVNDARPMKSAVEVISTAYLRNENPFEVRWHVSDRSGRPAFFNIIIEGVNMLASERAEVGALLDRNRGSIPALTEQLRRASLEHHHHHH | not soluble
MGSDKIHHHHHHMNMFSHINVDACKTPGCKNLGILGSPDYLPQGKNVLCRACGFLFPIISARSLNLFRQAANQPWKGLVKSCPHCGGTSLKKYGFSTKGERRMYCRQCNKTFISYTAIRSDARQENLATLIGEGASLVEIRAALAIDSTGFSRELQKLSRRANQAERDFVFPAFDIAMSTRAFRVKFNGGDSSLYVLVTAEEESGKVVAISTNYSAQPVEADYQYHSDYEERLPSGTLAHLVQRKEALTMRRNVLFDVDYGPAVLYKNDPGMLVKPVLPAYRHFELVQALTDERSLNVQHYLDHECFILGGCMMANFSYLRQGRCHISFVRERGVTPPKRDLPPRLFLSGGIRNNVWRTFSTRDYAMAVCNLTGNKKVSLLRHATLNSATAFIRYVHNHPFLPHLNRMSPGNVVAVLDYLKFEYNASRN | not soluble
MIRLSEQSPLGTGRHRKCYAHPEDAQRCIKIVYHRGDGGDKEIRRELKYYAHLGRRLKDWSGIPRYHGTVETDCGTGYVYDVIADFDGKPSITLTEFAEQCRYEEDIAQLRQLLKQLKRYLQDNRIVTMSLKPQNILCHRISESEVIPVVCDNIGESTLIPLATWSKWCCLRKQERLWKRFIAQPALAIALQKDLQPRESKTLALTSREA | soluble
APSASFERRQGSVNPYIGRSPLVIKSYAEKLEETIAYFEAQGDELNAARTRTVQGIPTFAWISDSATIDTIQPLIADAVAHQEASGEQVLVQLVIYNLPDRDCAAKASDGEFHLDDDGANKYRAYVDRIVAELSTADADKLHFSIVLEPDSLGNMVTNMHVPKCQGAATAYKEGIAYTIASLQKPNIDLYIDAAHGGWLGWNDNLRPSAEIFKETLDLARQITPNATVRGLAINVSNYNPYKTRAREDYTEWNNAYDEWNYVKTLTPHLQAVGFPAQFIVDQGRSGREGIRTEWGQWCNIRNAGFGIRPTTDQAIVDSANVDAIVWVKPGGESDGTSDVNAVRFDENCRSPASHVPAPEAGEWFNEFVVNLVINANPPLEPTYAAAALEHHHHHH | soluble
MLKQSGKLRADATPAEVEQAVRDYLRQKAIHMPRGKGELYDKEAKRAEAMQDGQQTNGVLNGKGKKLGQSKTASVPSVKPEPWNGGKRVDRVLVLLIEYPDFPHNNIQPTETDMYYKDYTREHYEDMIFGGDDGYYDGPNGEKLISVKKYYEEQSGGSYSIEGKVAGWYQAKYPAKYYGGNVPAPDGNDANPRALVREALAAAAKDPSINLREFDQEDRYDLDGDGNYREPDGLIDHLMIIHSSVGEEAGGGSLGGAAIWSHRWNLGSVYRIPNTTTDVPYWRGQLAAYDYTIEPADGAAGVFAHEYGHDLGLPDEYDTIYSGLGEPIAYWSIMSSGSWAGRIPGTEPTGFSAWAKQFLQSTMPGSNWLSGTTVEWNEVTQNGVEVVLDEASTKGTNNDAVRINLLKKETVVTIPPSGAYAYFSGSGNNLDHTMSTTIDLTGASKATLAFDTWYAIEKDWDYGAVEVKPHGSNEWTTIQGNITTTNNPYGQNPGNGITGTSNGWVKAEFDLSAYAGQTIDLRFHYITDVAVSEAGWYFDNIQVTADGAAVLADGAEGDSSFVMTGFEKSNGKRYSDHYYLLEWRNHRGVDEGLAHILRGGRLLSYDPGLVVWYVDEGYDNNWTGVHPGEGFLGVVDADQHTLKWSGNTTASTRYQVHDAAFSLQKGASFRVAINGSQLIDNDTSPTPVFDDSRSYDNKGAVDAGRNVPNYGLKIRVIGESADRTAARVLIYR | not soluble
APYRMAYIKKDPVDDARGSTNPFVRIPELSDEDGLIVARGEYVYCLLNLFPYNSGHMMVVPYRQEPNLEDLTAEEISELFAFGQAAIKVVKSVSRPDAINVGFNLGRASGGSVGEHLHMHIVPRWSGDANFMTVIDGTKVLPQLLRKTRSLLAQAWNDMDG | not soluble
